Experimental data: US7025971

Target: T1, PapD (wild type) (E. coli), P15319
T1 chain: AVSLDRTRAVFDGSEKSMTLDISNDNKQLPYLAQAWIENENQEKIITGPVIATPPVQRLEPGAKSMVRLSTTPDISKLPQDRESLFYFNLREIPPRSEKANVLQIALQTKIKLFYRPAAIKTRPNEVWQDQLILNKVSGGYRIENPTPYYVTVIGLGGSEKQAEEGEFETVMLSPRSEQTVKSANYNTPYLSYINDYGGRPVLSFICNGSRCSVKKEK

## LSFP (modifications not checked) [G1′-4′]
  % Inhibition: 0%

## YALAPNAVIPTSLALL (modifications not checked) [MS]
  % Inhibition: 1%
